Target: HSP90β (human) (UniProt P08238)
Test: cryo-EM structure; HSP90–CDC37–BRAF^V600E complex incubated with PP5 D274N, purified by SEC, cross-linked with 1 mM BS3; one sample gave three classes: HCK (3.4 Å), HCK-P open (4.2 Å), HCK-P closed (3.9 Å); PP5 modelled by rigid-body docking

Substance: HSP90β, P08238 1-724 (natural protein; phosphorylation at Ser226 and Ser255 found by mass spectrometry; phosphorylation at Ser226 and Ser255 found by mass spectrometry; other documents disagree on this pair)
- stoichiometry N: 2
